Assay results reported in patent publication US20090035321A1, “Intercellular adhesion molecules and their binding ligands” (Boehringer Ingelheim Pharmaceuticals, Inc., published 2009).

Columns and labels:
Test in all cases: COS cells on LFA-1 coated plastic
ICAM-1 N68/K = ICAM-1 N68/K (human, UniProt P05362)
ICAM-1 D60/N = ICAM-1 D60/N (human, UniProt P05362)
ICAM-1 D60/K = ICAM-1 D60/K (human, UniProt P05362)
ICAM-1 R49KV/EKL = ICAM-1 R49KV/EKL (human, UniProt P05362)
ICAM-1 D71/E = ICAM-1 D71/E (human, UniProt P05362)
ICAM-1 R13/E = ICAM-1 R13/E (human, UniProt P05362)
ICAM-1 Q58/H = ICAM-1 Q58/H (human, UniProt P05362)
ICAM-1 D203TQ/TAD = ICAM-1 D203TQ/TAD (human, UniProt P05362)
ICAM-1 S177/G = ICAM-1 S177/G (human, UniProt P05362)
ICAM-1 E59/K = ICAM-1 E59/K (human, UniProt P05362)
ICAM-1 N118/Q = ICAM-1 N118/Q (human, UniProt P05362)
ICAM-1 R166PQ/EPA = ICAM-1 R166PQ/EPA (human, UniProt P05362)
ICAM-1 E87/K = ICAM-1 E87/K (human, UniProt P05362)
ICAM-1 Q73/H = ICAM-1 Q73/H (human, UniProt P05362)
ICAM-1 K39KE/ERQ = ICAM-1 K39KE/ERQ (human, UniProt P05362)
ICAM-1 T75/A = ICAM-1 T75/A (human, UniProt P05362)
ICAM-1 Q1/K = ICAM-1 Q1/K (human, UniProt P05362)
ICAM-1 D71GQS/NGEL = ICAM-1 D71GQS/NGEL (human, UniProt P05362)
ICAM-1 D60S/KL = ICAM-1 D60S/KL (human, UniProt P05362)
ICAM-1 Q1/E = ICAM-1 Q1/E (human, UniProt P05362)
ICAM-1 S3/T = ICAM-1 S3/T (human, UniProt P05362)
ICAM-1 N175TSA/QTLG = ICAM-1 N175TSA/QTLG (human, UniProt P05362)
ICAM-1 G46NN/ASI = ICAM-1 G46NN/ASI (human, UniProt P05362)
ICAM-1 Q27/L = ICAM-1 Q27/L (human, UniProt P05362)
ICAM-1 E111GGA/KAGS = ICAM-1 E111GGA/KAGS (human, UniProt P05362)
ICAM-1 N156/E = ICAM-1 N156/E (human, UniProt P05362)
ICAM-1 D229QR/HLE = ICAM-1 D229QR/HLE (human, UniProt P05362)
ICAM-1 Y83/S = ICAM-1 Y83/S (human, UniProt P05362)
ICAM-1 A178/G = ICAM-1 A178/G (human, UniProt P05362)
ICAM-1 D60/Q = ICAM-1 D60/Q (human, UniProt P05362)
ICAM-1 S5/T (human) = ICAM-1 S5/T (human) (UniProt P05362)
ICAM-1 N56V/HM = ICAM-1 N56V/HM (human, UniProt P05362)
ICAM-1 Y52/FA = ICAM-1 Y52/FA (human, UniProt P05362)
ICAM-1 D71/N = ICAM-1 D71/N (human, UniProt P05362)
ICAM-1 R13/Q = ICAM-1 R13/Q (human, UniProt P05362)
ICAM-1 V4/G = ICAM-1 V4/G (human, UniProt P05362)
ICAM-1 Q58EDS/AKDI = ICAM-1 Q58EDS/AKDI (human, UniProt P05362)
ICAM-1 G101K/AN = ICAM-1 G101K/AN (human, UniProt P05362)
ICAM-1 R125/E = ICAM-1 R125/E (human, UniProt P05362)
ICAM-1 Q62PM/API = ICAM-1 Q62PM/API (human, UniProt P05362)
ICAM-1 K50V/EL = ICAM-1 K50V/EL (human, UniProt P05362)
ICAM-1 E59/Q = ICAM-1 E59/Q (human, UniProt P05362)
ICAM-1 S3VS/AGL = ICAM-1 S3VS/AGL (human, UniProt P05362)
ICAM-1 N175/A = ICAM-1 N175/A (human, UniProt P05362)
ICAM-1 L91/A = ICAM-1 L91/A (human, UniProt P05362)

Substance: purified LFA-1, bound to plastic (from UniProt P20701) (receptor)
- LFA-1 Binding % (% of wild type) (ICAM-1 N68/K): 101
- LFA-1 Binding % (% of wild type) (ICAM-1 D60/N): 92
- LFA-1 Binding % (% of wild type) (ICAM-1 D60/K): 14
- LFA-1 Binding % (% of wild type) (ICAM-1 R49KV/EKL): 123
- LFA-1 Binding % (% of wild type) (ICAM-1 D71/E): 118
- LFA-1 Binding % (% of wild type) (ICAM-1 R13/E): 1
- LFA-1 Binding % (% of wild type) (ICAM-1 Q58/H): 109
- LFA-1 Binding % (% of wild type) (ICAM-1 D203TQ/TAD): 91
- LFA-1 Binding % (% of wild type) (ICAM-1 S177/G): 59
- LFA-1 Binding % (% of wild type) (ICAM-1 E59/K): 134
- LFA-1 Binding % (% of wild type) (ICAM-1 N118/Q): 54
- LFA-1 Binding % (% of wild type) (ICAM-1 R166PQ/EPA): 75
- LFA-1 Binding % (% of wild type) (ICAM-1 E87/K): 65
- LFA-1 Binding % (% of wild type) (ICAM-1 Q73/H): 12
- LFA-1 Binding % (% of wild type) (ICAM-1 K39KE/ERQ): 99
- LFA-1 Binding % (% of wild type) (ICAM-1 T75/A): 59
- LFA-1 Binding % (% of wild type) (ICAM-1 Q1/K): 97
- LFA-1 Binding % (% of wild type) (ICAM-1 D71GQS/NGEL): 1
- LFA-1 Binding % (% of wild type) (ICAM-1 D60S/KL): 1
- LFA-1 Binding % (% of wild type) (ICAM-1 Q1/E): 175
- LFA-1 Binding % (% of wild type) (ICAM-1 S3/T): 149
- LFA-1 Binding % (% of wild type) (ICAM-1 N175TSA/QTLG): 26
- LFA-1 Binding % (% of wild type) (ICAM-1 G46NN/ASI): 49
- LFA-1 Binding % (% of wild type) (ICAM-1 Q27/L): 37
- LFA-1 Binding % (% of wild type) (ICAM-1 E111GGA/KAGS): 103
- LFA-1 Binding % (% of wild type) (ICAM-1 N156/E): 60
- LFA-1 Binding % (% of wild type) (ICAM-1 D229QR/HLE): 90
- LFA-1 Binding % (% of wild type) (ICAM-1 Y83/S): 42
- LFA-1 Binding % (% of wild type) (ICAM-1 A178/G): 59
- LFA-1 Binding % (% of wild type) (ICAM-1 D60/Q): 18
- LFA-1 Binding % (% of wild type) (ICAM-1 S5/T (human)): 104
- LFA-1 Binding % (% of wild type) (ICAM-1 N56V/HM): 121
- LFA-1 Binding % (% of wild type) (ICAM-1 Y52/FA): 138
- LFA-1 Binding % (% of wild type) (ICAM-1 D71/N): 79
- LFA-1 Binding % (% of wild type) (ICAM-1 R13/Q): 78
- LFA-1 Binding % (% of wild type) (ICAM-1 V4/G): 64
- LFA-1 Binding % (% of wild type) (ICAM-1 Q58EDS/AKDI): 3
- LFA-1 Binding % (% of wild type) (ICAM-1 G101K/AN): 97
- LFA-1 Binding % (% of wild type) (ICAM-1 R125/E): 81
- LFA-1 Binding % (% of wild type) (ICAM-1 Q62PM/API): 104
- LFA-1 Binding % (% of wild type) (ICAM-1 K50V/EL): 29
- LFA-1 Binding % (% of wild type) (ICAM-1 E59/Q): 84
- LFA-1 Binding % (% of wild type) (ICAM-1 S3VS/AGL): 18
- LFA-1 Binding % (% of wild type) (ICAM-1 N175/A): 67
- LFA-1 Binding % (% of wild type) (ICAM-1 L91/A): 87
